The values that follow come from the supplement of paper PMC7125110.

To fix the notation:
B1: glmS ribozyme (parent)
chain: AUAAAAGCGCCAGAACUACAGAAAUGUAGUUGACGAGGAGGAGGUUUAUCGAAUUUUCGGCGGAUGCCUCCAAA

Conditions in all cases: with glucosamine-6-phosphate
In series [1] the parent is B1. The experiment in a line: kcat; higher = faster cleavage; RNA array. The method, boiled down: (§1)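 Glucosamine-6-phosphate in HEPES/KCl/Mg(OAc)2 buffer, at 40 μM to 10 mM, was flowed over barcoded ribozyme variants transcribed in situ by E. coli RNA polymerase on sequenced MiSeq chips. Tracking was through a hybridised Cy3 probe at 37 °C. kobs, kcat and KM came from exponential decay fits and weighted Michaelis–Menten fits of normalised per-tile medians.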

The variants in series [2] derive from B1. Briefly: KM; higher = weaker cofactor use; RNA array. In short, it runs like this: as §1
Series [3] covers variants of B1. The experiment in a line: self-cleavage kobs at 2500 uM GlcN6P; higher = faster cleavage; RNA array. The method, boiled down: as §1
Series [4] covers variants of B1. The experiment in a line: self-cleavage kobs at 10000 uM GlcN6P; higher = faster cleavage; RNA array. In short, it runs like this: as §1
Variants of B1 are the subject of series [5]. Briefly: self-cleavage kobs at 40 uM GlcN6P; higher = faster cleavage; RNA array. In short, it runs like this:
as §1

The variants in series [6] derive from B1. The experiment in a line: self-cleavage kobs at 160 uM GlcN6P; higher = faster cleavage; RNA array. In short, it runs like this:
as §1

Series [7] covers variants of B1. Briefly: self-cleavage kobs at 640 uM GlcN6P; higher = faster cleavage; RNA array. In short, it runs like this:
as §1

± gives the standard error. For some of these results: This sample holds only a part of the variants without activity.

By kcat is commonly meant the maximal rate divided by the concentration of active sites. Broadly, the KM is the concentration of substrate that gives half-maximal velocity. For A42U U46A, the kcat in series [1] turned out to be 0.000165 ± 3.2e-05 s⁻¹. Also, the KM in series [2] amounted to 4410 ± 1900 µM. Also, the “self-cleavage kobs at 2500 uM GlcN6P” value in series [3] came to 7.32e-05 ± 1.7e-05 s⁻¹. In series [4], the “self-cleavage kobs at 10000 uM GlcN6P” value is 0.000112 ± 1.7e-05 s⁻¹.

In the case of U47G C58U, in series [1], the kcat was determined as 8.14e-05 ± 1.6e-05 s⁻¹. Also, in series [3], the “self-cleavage kobs at 2500 uM GlcN6P” value was determined as 3.07e-05 ± 1.2e-05 s⁻¹. Also, the “self-cleavage kobs at 10000 uM GlcN6P” value in series [4] came to 6.32e-05 ± 8.6e-06 s⁻¹.

For the variant A6G C67A, in series [1], the kcat was 0.00012 ± 9e-06 s⁻¹. Moreover, the KM in series [2] is 3130 ± 670 µM. In series [5], the “self-cleavage kobs at 40 uM GlcN6P” value is < 1e-05 s⁻¹. Also, in series [4], the “self-cleavage kobs at 10000 uM GlcN6P” value was 9.19e-05 ± 1.6e-05 s⁻¹.

As to C8A G29A C50G G66A C70G, the kcat in series [1] amounted to 7.47e-05 ± 2e-05 s⁻¹. Moreover, in series [6], the “self-cleavage kobs at 160 uM GlcN6P” value was 9e-05 ± 1.5e-05 s⁻¹. Besides, in series [7], the “self-cleavage kobs at 640 uM GlcN6P” value was determined as 4.95e-05 ± 1.7e-05 s⁻¹. Also, the “self-cleavage kobs at 2500 uM GlcN6P” value in series [3] is 7.56e-05 ± 1.6e-05 s⁻¹.

Turning to A15U A33C, in series [1], the kcat was found to be 5.35e-05 ± 2.5e-06 s⁻¹. In addition, the KM in series [2] turned out to be 813 ± 280 µM. In addition, the “self-cleavage kobs at 40 uM GlcN6P” value in series [5] was < 1e-05 s⁻¹. Moreover, the “self-cleavage kobs at 2500 uM GlcN6P” value in series [3] came to 4.34e-05 ± 1.3e-05 s⁻¹. Besides, the “self-cleavage kobs at 10000 uM GlcN6P” value in series [4] was determined as 4.91e-05 ± 6e-06 s⁻¹.

As to A15U G44U U47G C67G, the kcat in series [1] amounted to 0.000544 ± 0.00017 s⁻¹. Besides, the “self-cleavage kobs at 640 uM GlcN6P” value in series [7] is 0.000193 ± 3.9e-05 s⁻¹. Further, the “self-cleavage kobs at 2500 uM GlcN6P” value in series [3] stood at 0.000563 ± 9.9e-05 s⁻¹. In addition, the “self-cleavage kobs at 10000 uM GlcN6P” value in series [4] stood at 0.000418 ± 9.9e-05 s⁻¹.

As for A15G G37U, in series [1], the kcat stood at 1.02e-05 ± 7.1e-07 s⁻¹. The Michaelis constant (KM) in series [2] was 623 ± 300 µM. For the same variant, the “self-cleavage kobs at 40 uM GlcN6P” value in series [5] is < 1e-05 s⁻¹.

Turning to C16A G62A, in series [1], the kcat is < 1e-05 s⁻¹. For the same variant, the “self-cleavage kobs at 160 uM GlcN6P” value in series [6] was < 1e-05 s⁻¹.

As to C11U G29U, the catalytic constant (kcat) in series [1] was 0.000681 ± 0.00029 s⁻¹. The “self-cleavage kobs at 160 uM GlcN6P” value in series [6] was 5.37e-05 ± 1.3e-05 s⁻¹. Further, the “self-cleavage kobs at 640 uM GlcN6P” value in series [7] was found to be 7.49e-05 ± 1.3e-05 s⁻¹. In addition, the “self-cleavage kobs at 2500 uM GlcN6P” value in series [3] came to 0.000407 ± 6.3e-05 s⁻¹. Besides, the “self-cleavage kobs at 10000 uM GlcN6P” value in series [4] stood at 0.000463 ± 6.1e-05 s⁻¹.

In the case of U55C, the catalytic constant (kcat) in series [1] came out at 0.0394 ± 0.0032 s⁻¹. Moreover, the KM in series [2] amounted to 2000 ± 200 µM. Besides, the “self-cleavage kobs at 40 uM GlcN6P” value in series [5] stood at 0.000797 ± 1.8e-05 s⁻¹. The “self-cleavage kobs at 160 uM GlcN6P” value in series [6] turned out to be 0.0027 ± 0.00018 s⁻¹. Further, the “self-cleavage kobs at 640 uM GlcN6P” value in series [7] was found to be 0.0091 ± 0.00035 s⁻¹. The “self-cleavage kobs at 2500 uM GlcN6P” value in series [3] worked out at 0.0201 ± 0.001 s⁻¹. In series [4], the “self-cleavage kobs at 10000 uM GlcN6P” value was determined as 0.0349 ± 0.0014 s⁻¹.

With C50G G63C, the kcat in series [1] was found to be 2.84e-05 ± 1.1e-05 s⁻¹. The “self-cleavage kobs at 160 uM GlcN6P” value in series [6] was 3.67e-05 ± 1.6e-05 s⁻¹.

For the variant C67U U69C, the kcat in series [1] came to 0.000129 ± 6e-05 s⁻¹. For the same variant, the “self-cleavage kobs at 160 uM GlcN6P” value in series [6] worked out at 4.3e-05 ± 2.1e-05 s⁻¹. Also, the “self-cleavage kobs at 640 uM GlcN6P” value in series [7] is 0.000113 ± 2e-05 s⁻¹. Moreover, the “self-cleavage kobs at 2500 uM GlcN6P” value in series [3] is 4.99e-05 ± 2.3e-05 s⁻¹. The “self-cleavage kobs at 10000 uM GlcN6P” value in series [4] was determined as 0.000226 ± 3.7e-05 s⁻¹.

As to G37C A42G, in series [1], the kcat came out at 7.11e-05 ± 9.9e-06 s⁻¹. Moreover, in series [3], the “self-cleavage kobs at 2500 uM GlcN6P” value was determined as 4.76e-05 ± 1.3e-05 s⁻¹. In series [4], the “self-cleavage kobs at 10000 uM GlcN6P” value came out at 5.87e-05 ± 1e-05 s⁻¹.

Regarding G13A C50A, in series [1], the kcat is < 1e-05 s⁻¹. Moreover, the “self-cleavage kobs at 40 uM GlcN6P” value in series [5] is < 1e-05 s⁻¹. In series [4], the “self-cleavage kobs at 10000 uM GlcN6P” value was < 1e-05 s⁻¹.

For the variant C16G G41U, the kcat in series [1] worked out at 0.000139 ± 1.4e-05 s⁻¹. Besides, in series [2], the KM came out at 2720 ± 780 µM. The “self-cleavage kobs at 2500 uM GlcN6P” value in series [3] was determined as 7.39e-05 ± 1.7e-05 s⁻¹. Moreover, the “self-cleavage kobs at 10000 uM GlcN6P” value in series [4] came to 0.000107 ± 1.5e-05 s⁻¹.

As for A53C C71G, the kcat in series [1] stood at 0.00031 ± 7.7e-05 s⁻¹. Besides, the KM in series [2] came to 1290 ± 620 µM. In addition, the “self-cleavage kobs at 160 uM GlcN6P” value in series [6] worked out at 4.25e-05 ± 1.8e-05 s⁻¹. Moreover, the “self-cleavage kobs at 640 uM GlcN6P” value in series [7] amounted to 0.000101 ± 1.6e-05 s⁻¹. Moreover, the “self-cleavage kobs at 2500 uM GlcN6P” value in series [3] was determined as 0.000182 ± 3.4e-05 s⁻¹. Also, the “self-cleavage kobs at 10000 uM GlcN6P” value in series [4] was found to be 0.000335 ± 7.4e-05 s⁻¹.

Regarding G13A U31G, the kcat in series [1] amounted to 0.000328 ± 7.1e-05 s⁻¹. Besides, the “self-cleavage kobs at 2500 uM GlcN6P” value in series [3] was found to be 6.35e-05 ± 1.5e-05 s⁻¹. The “self-cleavage kobs at 10000 uM GlcN6P” value in series [4] came to 0.000153 ± 2.2e-05 s⁻¹.

As for A52G C71A, the catalytic constant (kcat) in series [1] came to 0.000593 ± 8.1e-05 s⁻¹. Besides, in series [2], the Michaelis-Menten constant (KM) was found to be 3190 ± 730 µM. Moreover, the “self-cleavage kobs at 160 uM GlcN6P” value in series [6] stood at 3.52e-05 ± 1.4e-05 s⁻¹. Besides, in series [7], the “self-cleavage kobs at 640 uM GlcN6P” value was 9.96e-05 ± 1.3e-05 s⁻¹. Besides, the “self-cleavage kobs at 2500 uM GlcN6P” value in series [3] was determined as 0.000247 ± 3.1e-05 s⁻¹. In series [4], the “self-cleavage kobs at 10000 uM GlcN6P” value was found to be 0.000466 ± 5.9e-05 s⁻¹.

As for C61U C70U, the turnover number (kcat) in series [1] was 3.98e-05 ± 5.3e-06 s⁻¹. Moreover, the “self-cleavage kobs at 2500 uM GlcN6P” value in series [3] stood at 3.31e-05 ± 1e-05 s⁻¹. For the same variant, the “self-cleavage kobs at 10000 uM GlcN6P” value in series [4] was 3.47e-05 ± 6e-06 s⁻¹.
